Common to all, as to experiment: SEC
In general terms: In gel filtration, larger molecules generally elute earlier.

Assay [1] concerns the target ELIC-α1GABAAR chimera, Q242L mutant (Erwinia chrysanthemi | human).
For assay [2], the target named is ELIC-α1GABAAR chimera, Q242W mutant (Erwinia chrysanthemi | human).
Assay [3] has as its target ELIC-α1GABAAR chimera, W246L mutant (Erwinia chrysanthemi | human).
For assay [4], the target named is ELIC-α1GABAAR chimera, WT (Erwinia chrysanthemi | human).

On to ELIC-α1GABAAR chimera, Q242L mutant, for which the stoichiometry N (as a rule, a count of units in the complex or per binding partner) in assay [1] was 5.

In assay [2], ELIC-α1GABAAR chimera, Q242W mutant registered a stoichiometry N of 5.

In assay [3], ELIC-α1GABAAR chimera, W246L mutant registered a stoichiometry N of 5.

Substance ELIC-α1GABAAR chimera, WT came in with a stoichiometry N in assay [4] of 5.

Take ELIC-β3GABAAR chimera: the stoichiometry N in assay [4] was 5.

These data come from article PMC6708749.
